According to patent publication US20170112926A1:

Target: hTEM8-AP (UniProt Q9H6X2)
Test: Biacore affinity measurement of Fab

Chain of hTEM8-AP (Q9H6X2 33-321): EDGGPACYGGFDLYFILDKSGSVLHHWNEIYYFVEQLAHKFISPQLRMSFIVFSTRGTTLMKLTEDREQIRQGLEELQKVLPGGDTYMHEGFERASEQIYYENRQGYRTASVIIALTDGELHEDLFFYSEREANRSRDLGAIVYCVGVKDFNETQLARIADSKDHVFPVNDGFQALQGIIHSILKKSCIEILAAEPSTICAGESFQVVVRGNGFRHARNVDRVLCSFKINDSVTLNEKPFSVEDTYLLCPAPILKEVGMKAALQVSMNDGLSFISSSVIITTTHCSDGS

B1: M825 Fab (anti-TEM8 fragment antigen-binding) (Fab, V domains shown)
VH: QVQLVQSGAEVKKPGTSVKVSCKVPGYTFSSYAISWVRQAPGQGLEWMGGIIPIFGTTNYAQKFQGRVTITGEESTSTVYMELSSLRSEDTAVYYCARDTDYMFDYWGQGTLVTVSS
VL: SSELTQDPVVSVALGETVSITCQGDNLRDFYASWYQQKPGQAPLLVMYGKNRRPSGIPDRFSGSTSGNTLSLTITGAQAEDEADYYCSSRDNSKHVVFGGGTKVTVL
A Kd of 0.0591 nM, a koff of 0.00018 s⁻¹ and a kon of 3.05e+06 M⁻¹ s⁻¹ were found for B1 in this work.
